Several values for one entry are separate records, joined by “and”; a condition that tells them apart may be missing. Identical values can stand only once. Like-named read-outs stand apart in the source and are kept apart here.
Legend:
Experiment in all cases: SPR
[1] = target: T1, isolated CNBH domain of mouse EAG1 (mEAG1) channels, residues 552-708 (mouse, UniProt Q60603 552-708)
T1 sequence (looked up): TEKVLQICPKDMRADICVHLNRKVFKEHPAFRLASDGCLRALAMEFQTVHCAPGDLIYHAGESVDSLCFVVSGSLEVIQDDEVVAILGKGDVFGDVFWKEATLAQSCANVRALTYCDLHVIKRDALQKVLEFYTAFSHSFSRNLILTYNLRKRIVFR

[2] = target: T1, isolated CNBH domain of mouse EAG1 …; remark: listed apart in the source
[3] = target: T1, isolated CNBH domain of mouse EAG1 …; remark: listed apart in the source
[4] = target: T1, isolated CNBH domain of mouse EAG1 …; remark: listed apart in the source

Kd [1]: 1.8 µM
Kd [2]: 1.6 µM
Kd [3]: 0.9 µM and 0.5 µM
Kd [4]: 2.5 µM and 2.9 µM
B1: isolated PAS domain of mouse EAG1 (mEAG1) channels, residues 7-136 (domain or fragment, UniProt Q60603 7-136, looked up)
chain: RRGLVAPQNTFLENIVRRSNDTNFVLGNAQIVDWPIVYSNDGFCKLSGYHRAEVMQKSSACSFMYGELTDKDTVEKVRQTFENYEMNSFEILMYKKNRTPVWFFVKIAPIRNEQDKVVLFLCTFSDITAF
